Results published in patent publication US20150315556.
Changes are numbered by the printed parent chain.

Key:
[1] = target: T1, CCR2 rationally-designed meganuclease (I-CreI derivative)
T1 chain: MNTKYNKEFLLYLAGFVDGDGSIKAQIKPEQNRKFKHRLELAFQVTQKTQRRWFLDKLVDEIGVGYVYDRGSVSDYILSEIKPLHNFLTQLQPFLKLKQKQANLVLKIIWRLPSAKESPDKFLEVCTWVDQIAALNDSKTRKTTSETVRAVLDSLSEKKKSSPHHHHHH

[2] = target: T2, MYD2 rationally-designed meganuclease (I-CreI derivative)
T2 chain: T1 chain with K24I, Q26A, K28R, N32S, R33Y, A42R, Y68R, I77Q

[3] = target: T3, HSV2 rationally-designed meganuclease (I-CreI derivative)
T3 chain: T1 chain with K24I, K28R, E30R, N32C, R38E, A42R, Y68R

B1: CCR1 rationally-designed meganuclease (I-CreI derivative) (protein)
chain: T1 chain with K28R, E30R, R33Y, R38E, A42E
**Q.** For B1, which “cleavage of a linearized DNA substrate containing the intended non-palindromic recognition sequence by the 1:1 mixture” value [1] is on record?
**A.** each rationally-designed meganuclease heterodimer cleaves its intended DNA site

B2: MYD1 rationally-designed meganuclease (I-CreI derivative) (protein)
chain: T1 chain with K24I, K28R, E30R, N32S, R33Y, R38E, Y66K, Y68R, I77E
**Q.** How did the “cleavage of a linearized DNA substrate containing the intended non-palindromic recognition sequence by the 1:1 mixture” value [2] turn out when B2 was run?
**A.** each rationally-designed meganuclease heterodimer cleaves its intended DNA site

B3: HSV1 rationally-designed meganuclease (I-CreI derivative) (protein)
chain: T1 chain with K24I, E30R, N32S, R33C, R38E, E40R, A42Q, Y68R
**Q.** Which “cleavage of a linearized DNA substrate containing the intended non-palindromic recognition sequence by the 1:1 mixture” value [3] does the source give for B3 here?
**A.** each rationally-designed meganuclease heterodimer cleaves its intended DNA site
